Laboratory results from patent US20240116985A1, “STAPLED PEPTIDES AND METHODS THEREOF” (priority 2020, published 2024).
Starred links: 1 amine or outer side, 2 acyl side, 3 side chain; linkers in the order of their positions; H or OH if unused. Positions of bridges follow the written chain, without caps; N, C: chain ends. Non-standard residues stand in square brackets, D forms with d. Primed or numbered codes have the meaning given here. PyrS2″ = (S)-3-amino-1-((pent-4-en-1-yloxy)carbonyl)pyrrolidine-3-carboxylic acid (stapling residue), C=CCCCOC(=O)N1CC[C@@](N[*:1])(C(=O)[*:2])C1; B5(4) = 2,2-bis(4-pentenyl)glycine = 2-amino-2-(pent-4-en-1-yl)hept-6-enoic acid (stitching residue), C=CCCCC(CCCC=C)(N[*:1])C(=O)[*:2]; B5(5) = 2,2-bis(4-pentenyl)glycine, 2-amino-2-(pent-4-en-1-yl)hept-6-enoic acid (stitching residue), C=CCCCC(CCCC=C)(N[*:1])C(=O)[*:2]; B5(8) = 2,2-bis(4-pentenyl)glycine (2-amino-2-(pent-4-en-1-yl)hept-6-enoic acid, stitching residue), C=CCCCC(CCCC=C)(N[*:1])C(=O)[*:2]; TfeGA = (S)-2-amino-3-((carboxymethyl)(2,2,2-trifluoroethyl)amino)propanoic acid, O=C([C@H](CN(CC(=O)[*:3])CC(F)(F)F)N[*:1])[*:2]; (EtSSpy)AspE = (S)-2-amino-4-oxo-4-(2-(pyridin-2-yldisulfaneyl)ethoxy)butanoic acid, O=C(C[C@H](N[*:1])C(=O)[*:2])OCCSSc1ccccn1; PyrS2 = (S)-3-amino-1-((pent-4-en-1-yloxy)carbonyl)pyrrolidine-3-carboxylic acid, C=CCCCOC(=O)N1CC[C@@](N[*:1])(C(=O)[*:2])C1; AspSH = (S)-2-amino-4-mercapto-4-oxobutanoic acid, O=C(C[C@H](N[*:1])C(=O)[*:2])S[*:3]; B5 = 2-amino-2-(pent-4-en-1-yl)hept-6-enoic acid, C=CCCCC(CCCC=C)(N[*:1])C(=O)[*:2]; Phe(2-Cl) = N[C@@H](Cc1ccccc1Cl)C(=O)O; Bta = N[C@@H](Cc1csc2ccccc12)C(=O)O; αAllylPro = C=CC[C@@]1(C(=O)O)CCCN1; tBuAla = CC(C)(C)C[C@H](N)C(=O)O; 3Thi = N[C@@H](Cc1ccsc1)C(=O)O; S8 = C=CCCCCCC[C@](C)(N)C(=O)O; hLeu = CC(C)CC[C@H](N)C(=O)O; Abu = CC[C@H](N)C(=O)O

B1: I-693 (peptide)
peptide: Ac-[αAllylPro]D[tBuAla][B5(4)]DEAAFN[PyrS2″]F[Bta]H-NH2
modifications: staple 1-4, 4-11; not fully specified; printed as Ac-PL3-Asp-Npg-B5-Asp-Glu-Ala-Ala-Phe-Asn-PyrS2-Phe-BztA-His-NH2

These binders were tested against full-length beta-Catenin (Uniprot ID P35222) (Homo sapiens (Human)) (UniProt P35222) (assay: fluorescence polarization competition; full-length beta-catenin + 5FAM-TCF4(10-53) probe; peptide titrated).
Target sequence in this assay (P35222 2-781 limits assumed): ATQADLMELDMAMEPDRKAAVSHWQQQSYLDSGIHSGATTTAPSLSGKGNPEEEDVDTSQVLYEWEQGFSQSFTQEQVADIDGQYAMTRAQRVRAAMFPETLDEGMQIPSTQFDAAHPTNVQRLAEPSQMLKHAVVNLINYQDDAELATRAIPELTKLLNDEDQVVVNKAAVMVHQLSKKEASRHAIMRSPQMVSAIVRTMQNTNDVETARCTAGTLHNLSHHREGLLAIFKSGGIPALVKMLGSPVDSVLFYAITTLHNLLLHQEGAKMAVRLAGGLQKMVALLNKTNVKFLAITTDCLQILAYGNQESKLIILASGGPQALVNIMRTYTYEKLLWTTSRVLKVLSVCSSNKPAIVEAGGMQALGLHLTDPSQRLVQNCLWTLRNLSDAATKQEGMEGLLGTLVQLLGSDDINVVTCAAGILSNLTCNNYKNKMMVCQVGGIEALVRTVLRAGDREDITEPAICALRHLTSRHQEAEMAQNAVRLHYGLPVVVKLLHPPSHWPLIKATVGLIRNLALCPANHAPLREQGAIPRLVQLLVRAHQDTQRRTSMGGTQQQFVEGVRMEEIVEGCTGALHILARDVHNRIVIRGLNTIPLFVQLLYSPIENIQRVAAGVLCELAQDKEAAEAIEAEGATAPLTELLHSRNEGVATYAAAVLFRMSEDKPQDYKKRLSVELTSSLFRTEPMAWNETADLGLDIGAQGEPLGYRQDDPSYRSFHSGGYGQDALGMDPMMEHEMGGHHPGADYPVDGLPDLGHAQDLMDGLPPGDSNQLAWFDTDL
B1 was tested, and the EC50 was 12 nM. Binder Ac-[αAllylPro]D[tBuAla][B5(8)]DEAAFN[PyrS2″][3Thi][Bta]H-NH2 (staple 1-4, 4-11) [I-697] has an EC50 of 5 nM. For Ac-[αAllylPro]DI[B5(8)]D[TfeGA]AAFN[S8][3Thi][Bta]Q-NH2 (staple 1-4, 4-11) [I-701], the EC50 was 34 nM.

These binders were tested against full-length beta-Catenin (Uniprot ID P35222) (Homo sapiens (Human)) (UniProt P35222) (assay: competition fluorescence polarization; full-length beta-catenin, 5FAM-TCF4(10-53) probe as competitor).
Target sequence in this assay (P35222 whole entry, one chain of several): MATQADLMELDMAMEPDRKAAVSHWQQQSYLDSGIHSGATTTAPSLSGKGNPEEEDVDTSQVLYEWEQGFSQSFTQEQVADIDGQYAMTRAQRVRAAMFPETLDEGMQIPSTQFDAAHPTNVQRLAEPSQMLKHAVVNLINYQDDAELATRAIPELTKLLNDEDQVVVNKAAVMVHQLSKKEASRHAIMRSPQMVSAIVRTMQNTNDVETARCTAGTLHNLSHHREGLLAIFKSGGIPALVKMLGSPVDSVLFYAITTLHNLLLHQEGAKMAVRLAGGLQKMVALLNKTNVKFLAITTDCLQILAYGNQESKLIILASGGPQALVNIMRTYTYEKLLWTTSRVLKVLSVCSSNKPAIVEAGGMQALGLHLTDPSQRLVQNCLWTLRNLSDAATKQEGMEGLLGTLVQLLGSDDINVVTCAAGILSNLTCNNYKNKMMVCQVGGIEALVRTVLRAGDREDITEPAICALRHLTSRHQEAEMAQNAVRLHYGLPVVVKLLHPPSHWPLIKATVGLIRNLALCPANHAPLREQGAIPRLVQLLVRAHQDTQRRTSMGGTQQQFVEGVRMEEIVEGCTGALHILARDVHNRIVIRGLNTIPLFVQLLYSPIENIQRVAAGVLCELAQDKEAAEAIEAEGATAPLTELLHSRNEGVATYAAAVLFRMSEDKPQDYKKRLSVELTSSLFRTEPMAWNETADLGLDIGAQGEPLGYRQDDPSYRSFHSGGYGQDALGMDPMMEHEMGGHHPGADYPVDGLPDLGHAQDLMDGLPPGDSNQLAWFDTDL
Ac-[αAllylPro]D[Abu][B5]DDAAFN[S8]F[Bta]H-NH2 (staple 1-4, 4-11) [I-575] was tested, and the IC50 was 21 nM. Binder Ac-[αAllylPro]D[hLeu][B5(5)]DDAAFN[S8]F[Bta]H-NH2 (staple 1-4, 4-11; also: staple isomer, earlier eluting HPLC peak) [I-583] has an IC50 of 69 nM. With Ac-[αAllylPro]D[hLeu][B5(5)]DDAAFN[S8]F[Bta]H-NH2 (staple 1-4, 4-11) [I-584] the IC50 was 33 nM.

These binders were tested against Bcat-Halo (UniProt P35222) (assay: NanoBRET in HEK293 cells (Bcat-Halo / TCF4-Luc), absolute IC50; competitor: TCF4-Luc).
Bcat-Halo, sequence (P35222 whole entry): as the sequence (P35222 whole entry, one chain of several) above
With Ac-[αAllylPro]D[tBuAla][B5(4)]DEAAFN[S8][3Thi][Bta]Q-NH2 (staple 1-4, 4-11; not fully specified) [I-683] the IC50 was 6.7 µM. In the case of B1, the IC50 is reported as 28.5 µM. Ac-[αAllylPro]D[tBuAla][B5(8)]DEAAFN[PyrS2″][3Thi][Bta]H-NH2 (staple 1-4, 4-11) [I-697] showed an IC50 of 14.7 µM. For Ac-[αAllylPro]DI[B5(8)]D[TfeGA]AAFN[S8][3Thi][Bta]Q-NH2 (staple 1-4, 4-11) [I-701], the IC50 was 18.1 µM.

What follows are binders tested against full-length beta-Catenin (Uniprot ID P35222) (Homo sapiens (Human)) (UniProt P35222) (assay: fluorescence polarization competition; full-length beta-catenin; competitor displaced: 5FAM-TCF4 10-53).
Target sequence in this assay (P35222 2-781 limits assumed): as the sequence (P35222 2-781 limits assumed) above
Work on Ac-[αAllylPro]D[tBuAla][B5(4)]DEAAFN[S8][3Thi][Bta]Q-NH2 (staple 1-4, 4-11; not fully specified) [I-683] yielded an IC50 of 19 nM. With B1 the IC50 was 12 nM. Ac-[αAllylPro]D[tBuAla][B5(8)]DEAAFN[PyrS2″][3Thi][Bta]H-NH2 (staple 1-4, 4-11) [I-697] showed an IC50 of 5 nM. With Ac-[αAllylPro]DI[B5(8)]D[TfeGA]AAFN[S8][3Thi][Bta]Q-NH2 (staple 1-4, 4-11) [I-701] the IC50 was 34 nM.

The binders below were run against full-length beta-Catenin (Uniprot ID P35222) (Homo sapiens (Human)) (UniProt P35222) (assay: fluorescence polarization competition; full-length beta-catenin, competitor 5FAM-TCF4(10-53) probe).
Target sequence in this assay (P35222 whole entry, one chain of several): as the sequence (P35222 whole entry, one chain of several) above
Ac-[αAllylPro]D[Abu][B5]DDAAFN[S8]F[Bta]H-NH2 (staple 1-4, 4-11) [I-575] showed an EC50 of 21 nM. In the case of Ac-[αAllylPro]D[hLeu][B5(5)]DDAAFN[S8]F[Bta]H-NH2 (staple 1-4, 4-11; also: staple isomer, earlier eluting HPLC peak) [I-583], the EC50 is reported as 69 nM. Ac-[αAllylPro]D[hLeu][B5(5)]DDAAFN[S8]F[Bta]H-NH2 (staple 1-4, 4-11) [I-584] gave an EC50 of 33 nM.

These binders were tested against full-length beta-Catenin (Uniprot ID P35222) (Homo sapiens (Human)) (UniProt P35222) (assay: fluorescence polarization competition; 10 nM full-length beta-catenin + 10 nM 5FAM-TCF4(10-53) as competitor probe; peptide titrated).
Target sequence in this assay (P35222 2-781 limits assumed): as the sequence (P35222 2-781 limits assumed) above
In the case of Ac-[αAllylPro][AspSH][tBuAla][B5]DDAAFN[PyrS2][Phe(2-Cl)][Bta]Q-NH2 (staple 1-4, 4-11; not fully specified) [I-1722], the IC50 is reported as 135 nM. Ac-[αAllylPro][(EtSSpy)AspE][tBuAla][B5]DDAAFN[PyrS2][Phe(2-Cl)][Bta]Q-NH2 (staple 1-4, 4-11; also: earlier-eluting isomer) [I-1723] showed an IC50 of 62 nM. Binder Ac-[αAllylPro][(EtSSpy)AspE][tBuAla][B5]DDAAFN[PyrS2][Phe(2-Cl)][Bta]Q-NH2 (staple 1-4, 4-11; not fully specified) [I-1724] has an IC50 of 551 nM. Ac-[αAllylPro]D[tBuAla][B5(4)]NTAAFW[PyrS2″][3Thi][Bta]Q-NH2 (staple 1-4, 4-11) [I-1741] showed an IC50 of 4390 nM. In the case of Ac-[αAllylPro]D[tBuAla][B5(4)]NTAAFN[PyrS2″][3Thi][Bta]-NH2 (staple 1-4, 4-11) [I-1742], the IC50 is reported as 867 nM. Ac-[αAllylPro]D[tBuAla][B5(4)]NTAAFN[PyrS2″][3Thi][Bta]R-NH2 (staple 1-4, 4-11) [I-1743] showed an IC50 of 469 nM. For Ac-[αAllylPro]D[tBuAla][B5(4)]NTAAFN[PyrS2″][3Thi][Bta]F-NH2 (staple 1-4, 4-11) [I-1744], the IC50 was 363 nM. With Ac-[αAllylPro]D[tBuAla][B5(4)]NTAAFN[PyrS2″][3Thi][Bta]T-NH2 (staple 1-4, 4-11) [I-1745] the IC50 was 402 nM. With Ac-[αAllylPro]D[tBuAla][B5(4)]NTAAFN[PyrS2″][3Thi][Bta]N-NH2 (staple 1-4, 4-11) [I-1746] the IC50 was 235 nM. In the case of Ac-[αAllylPro]D[tBuAla][B5(5)]D[TfeGA]AAFL[PyrS2″][3Thi][Bta]L-NH2 (staple 1-4, 4-11) [I-1747], the IC50 is reported as 187 nM.
